Patent US20240076361A1 (EISAI R AND D MANAGEMENT, published 2024)

Target: T1, non-phosphorylated Tau (Tau-441 (2N4R), rPeptide LLC) (human, UniProt P10636 1-758)
T1 construct: also called non-phosphorylated Tau protein (2N4R); recombinant Tau
Experiment: sandwich ELISA: antigen captured by coated anti-Tau antibody BT2, detected with the peroxidase-labelled antibody at 80 ng/mL; antigen concentration varied
Description: Anti-Tau monoclonal antibody BT2 (Thermo Fisher Scientific) was adjusted with 50 mM Tris/HCl (pH 7.5) to a concentration of 1 microgram/mL, and then injected at 100 microliter/well in a Maxisorp cup (NUNC). The cup was placed in a humid box and coated overnight at 4 degrees Celsius. After the antibody solution was removed by aspiration, a blocking solution (5% skimmed milk (FUJIFILM Wako Pure Chemical), 50 mM Tris/HCl (pH 7.5), 150 mM NaCl, 0.1% sodium azide) was injected at 200 microliter/well, followed by blocking at room temperature for 2 hours or at 4 degrees Celsius for one day or more (hereinafter referred to as “BT2 cup”). The test recombinant antibodies: 5F6-4D1, 7G5-4B8, 2H8-1G7, 2H8-1G7(KC14S) and comparator antibodies: PT3 and anti-pT217 Tau polyclonal antibody (Genscript poly; Cat. No. A00896, Genscript) were labeled with peroxidase using a Peroxidase Labeling Kit-NH2 (DOJINDO MOLECULAR TECHNOLOGIES) in accordance with the instruction manual attached to the kit (hereinafter referred to as “peroxidase-labeled pT217 Tau antibodies”). […]

T1 sequence (P10636 other isoform, or with tags, fused parts or gaps limits assumed): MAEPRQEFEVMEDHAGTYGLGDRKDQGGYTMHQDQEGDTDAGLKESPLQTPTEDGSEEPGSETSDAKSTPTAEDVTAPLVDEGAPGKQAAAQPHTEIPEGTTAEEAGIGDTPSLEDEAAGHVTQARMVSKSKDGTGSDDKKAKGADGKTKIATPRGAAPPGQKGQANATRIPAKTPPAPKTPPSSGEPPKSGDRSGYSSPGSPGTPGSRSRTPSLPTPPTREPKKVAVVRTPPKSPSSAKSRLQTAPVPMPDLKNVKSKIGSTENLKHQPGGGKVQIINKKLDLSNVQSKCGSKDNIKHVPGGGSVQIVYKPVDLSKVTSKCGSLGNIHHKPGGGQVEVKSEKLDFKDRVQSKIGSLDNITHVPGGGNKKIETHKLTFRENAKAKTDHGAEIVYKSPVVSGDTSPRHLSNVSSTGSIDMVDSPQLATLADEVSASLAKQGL

B1: 2H8-1G7(KC14S) (antibody, mouse IgG2b, kappa, V domains shown)
VH: EVQLVESGGGLVKPGGSLKLSCAASGFTVSDYGMHWVRQAPEKGLEWIAYISSGSSTIYYVDTVKGRFTISRDNAKNTLFLQMTSLRSEDTAMYYCARRLSIWGTGTTVTVSS
VL: QIVLTQSPAIMSASPGEKVTMTCSASSSVSSMYWYHQKPGSSPRLLIYDTSNLASGVPVRFSGSGSGTSYSLTISRMEAEDAATYYCLQWSSYPLTFGAGTKLELKR
notes: Recombinant mouse IgG2b kappa
  binding result: no binding (tested: 80000 pg/mL)
